Experimental data: paper PMC2845276 (The EMBO Journal, 2010)

Assays:
[1] = target: talin1 F0 domain (murine) (UniProt P26039)
[2] = target: GST-talin head (mouse, UniProt P26039 1-433); test: pull-down
[3] = target: GST-talin head ΔF1 loop (mouse, UniProt P26039 1-433, lacking residues 133–165); test: pull-down

Chain of GMP.PNP-Rap1 (P62834 whole entry): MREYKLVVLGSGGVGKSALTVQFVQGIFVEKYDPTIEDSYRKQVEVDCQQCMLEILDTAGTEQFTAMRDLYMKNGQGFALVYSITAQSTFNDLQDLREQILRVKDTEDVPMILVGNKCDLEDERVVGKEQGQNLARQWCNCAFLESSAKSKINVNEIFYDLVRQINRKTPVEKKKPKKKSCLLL

Kd [1] | Kd [2] | Kd [3] | Molecule
140 µM | – | – | GMP.PNP-Rap1 (from UniProt P62834 1-184) (natural protein)
– | 0.124 ± 0.019 µM | 0.099 ± 0.02 µM | KLLMIIHDRREFAKFEKEKMNAKWDTGENPIYKSAVTTVVNPKYEGK (domain or fragment, UniProt P05556-1 752-798, looked up) [β1A-integrin cytoplasmic tail (recombinant model protein)]
